± gives the uncertainty stated by the source.
Assay: self-splicing fitness, log relative to wild type (ln ratio); higher = more splicing; Tetrahymena group I intron in knt gene, E. coli kanamycin selection, DiMSum; sequences stand for … in CUCUCU…GGAGGGAAAAGUUAUCAGGCAUGCACCUGGUAGCUAGUCUUUAAACCAAUAGAUUGCAUCGGUUUAAAAGGCAAGACCGUCAAAUUGCGGGAAAGGGGUCAACAGCCGUUCAGUACCAAGUCUCAGGGGAAACUUUGAGAUGGCCUUGCAAAGGGUAUGGUAAUAAGCUGACGGACAUGGUCCUAACCACGCAGCCAAGUCCUAAGUCAACAGAUCUUCUGUUGAUAUGGAUGCAGUUCACAGACUAAAUGUCGGUCGGGGAAGAUGUAUUCUUCUCAUAAGAUAUAGUCGGACCUCUCCUUAAUGGGAGCUAGCGGAUGAAGUGAUGCAACACUGGAGCCGCUGGGAACUAAUUUGUAUGCGAAAGUAUAUUGAUUAGUUUUGGAGUACUCGUGGUCG
Method in brief: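 A randomised library covering all eight P1ex-region intron nucleotides was built with the intron in the knt kanamycin-resistance gene on pET-22b(+) and held in E. coli BL21(DE3). Cells were grown overnight at 37°C or 30°C on LB agar, with or without 25 μg/mL kanamycin, plus 100 μg/mL carbenicillin, 50 μM IPTG and 0.2% rhamnose, and pooled colonies were amplicon-sequenced on an Illumina HiSeq 2500. DiMSum fitness is the error-weighted combination of wild-type-normalised replicate fold changes, kanamycin versus none.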

Row | Sequence | self-splicing fitness (ln) (30 °C) | self-splicing fitness (ln) (37 °C)
1 | CAGAAGCAAUAUUACGUAGC | -3.8 ± 0.27 | -3.32 ± 0.28
2 | UGCCAGCAAUAUUACGCUAA | -0.447 ± 0.084 | 0.0253 ± 0.095
3 | CUUCAGCAAUAUUACGACAA | -2.42 ± 0.21 | -2.52 ± 0.31
4 | ACGCAGCAAUAUUACGGGCC | -1.28 ± 0.091 | -0.893 ± 0.12
5 | GGCCAGCAAUAUUACGUUCG | -2.66 ± 0.12 | -1.75 ± 0.11
6 | UACCAGCAAUAUUACGACGA | -0.586 ± 0.086 | 0.837 ± 0.11
7 | GCUGAGCAAUAUUACGCCAA | – | -3.52 ± 0.46
8 | CUCUAGCAAUAUUACGCGUA | -4.1 ± 0.27 | -3.32 ± 0.24
9 | GAGGAGCAAUAUUACGCCAC | – | -2.39 ± 0.37
10 | AAUGAGCAAUAUUACGCAAG | -3.81 ± 0.27 | -2.45 ± 0.38
11 | AUUUAGCAAUAUUACGGUAU | -1.51 ± 0.088 | -0.753 ± 0.089
12 | GUCCAGCAAUAUUACGGUAA | -0.283 ± 0.086 | 0.647 ± 0.079
13 | CGGGAGCAAUAUUACGCGGG | -4.1 ± 0.37 | -2.83 ± 0.3
14 | GAUUAGCAAUAUUACGUCAA | -2.6 ± 0.41 | -0.886 ± 0.22
15 | CAGCAGCAAUAUUACGUACU | -2.54 ± 0.24 | -2.5 ± 0.32
16 | AUGGAGCAAUAUUACGAACU | -1.95 ± 0.28 | -1.45 ± 0.24
17 | ACCCAGCAAUAUUACGCUAU | -0.847 ± 0.066 | -0.75 ± 0.08
18 | GACCAGCAAUAUUACGAUAU | -0.781 ± 0.072 | -0.235 ± 0.086
19 | UUGGAGCAAUAUUACGCUGG | -1.62 ± 0.34 | -0.962 ± 0.32
20 | CUCCAGCAAUAUUACGAAGA | – | -3.41 ± 0.42
21 | AAGCAGCAAUAUUACGUCGG | -2.24 ± 0.1 | -1.7 ± 0.17
22 | AAACAGCAAUAUUACGAAUA | -2.67 ± 0.14 | -1.1 ± 0.084
23 | CAUCAGCAAUAUUACGGCCA | -2.63 ± 0.28 | -0.947 ± 0.27
24 | GGGUAGCAAUAUUACGUCCA | -0.128 ± 0.093 | 0.376 ± 0.12
25 | ACAGAGCAAUAUUACGGUUG | -3.68 ± 0.24 | -3.02 ± 0.22

Row | Sequence | self-splicing fitness (ln) (30 °C) | self-splicing fitness (ln) (37 °C)
26 | AGGAAGCAAUAUUACGAUAA | -1.9 ± 0.21 | -1.33 ± 0.29
27 | UACCAGCAAUAUUACGCAAG | -2.3 ± 0.13 | -0.829 ± 0.13
28 | UACUAGCAAUAUUACGGGUA | -2.08 ± 0.14 | -1.84 ± 0.13
29 | CAUGAGCAAUAUUACGUUCU | -3.59 ± 0.27 | -3.11 ± 0.26
30 | GCCGAGCAAUAUUACGUUAG | -3.58 ± 0.17 | -2.65 ± 0.19
31 | CUGGAGCAAUAUUACGUAUG | -1.78 ± 0.12 | -0.437 ± 0.14
32 | UCACAGCAAUAUUACGGGAA | -1.98 ± 0.1 | -0.945 ± 0.089
33 | ACUUAGCAAUAUUACGAGGG | -3.07 ± 0.24 | -2.65 ± 0.23
34 | AAGCAGCAAUAUUACGUUGC | -2.46 ± 0.099 | -3.24 ± 0.21
35 | UAAGAGCAAUAUUACGCGAG | -3.96 ± 0.21 | -1.85 ± 0.17
36 | UCUAAGCAAUAUUACGAUUG | -3.4 ± 0.18 | -2.26 ± 0.17
37 | CCUCAGCAAUAUUACGCAGU | -3.09 ± 0.22 | -1.67 ± 0.28
38 | AACGAGCAAUAUUACGUUCA | -2.32 ± 0.17 | -1.87 ± 0.23
39 | GUAUAGCAAUAUUACGGUAA | -2.59 ± 0.23 | -1.24 ± 0.15
40 | AUAAAGCAAUAUUACGCCUC | -0.875 ± 0.14 | -0.532 ± 0.2
41 | UAAUAGCAAUAUUACGCUUA | -1.32 ± 0.25 | -0.932 ± 0.15
42 | CCAAAGCAAUAUUACGAGAG | -2.24 ± 0.23 | -1.91 ± 0.2
43 | GCACAGCAAUAUUACGAUGA | -0.231 ± 0.076 | -0.14 ± 0.078
44 | UACAAGCAAUAUUACGCGCC | -1.66 ± 0.13 | -0.798 ± 0.13
45 | UAUGAGCAAUAUUACGGUUC | -3.43 ± 0.19 | -3.82 ± 0.46
46 | UUAAAGCAAUAUUACGAUAA | 0.359 ± 0.084 | 0.431 ± 0.1
47 | AUUAAGCAAUAUUACGCCGU | -0.62 ± 0.1 | -0.369 ± 0.14
48 | AGCUAGCAAUAUUACGCGCA | -0.216 ± 0.095 | 0.0846 ± 0.13
49 | GGUAAGCAAUAUUACGUGCU | -2.24 ± 0.18 | -1.36 ± 0.2
50 | GGAUAGCAAUAUUACGCAUA | -1.88 ± 0.45 | -2.04 ± 0.39

Row | Sequence | self-splicing fitness (ln) (30 °C) | self-splicing fitness (ln) (37 °C)
51 | UAACAGCAAUAUUACGUCAA | -2.17 ± 0.15 | -0.769 ± 0.1
52 | UCACAGCAAUAUUACGUUGA | -2.56 ± 0.11 | -2.1 ± 0.11
53 | CUGAAGCAAUAUUACGCUUG | -2.33 ± 0.13 | -1.79 ± 0.14
54 | UGGAAGCAAUAUUACGCGAA | -1.68 ± 0.16 | -1.03 ± 0.15
55 | ACCCAGCAAUAUUACGCCAG | -3.26 ± 0.21 | -2.55 ± 0.33
56 | GAUUAGCAAUAUUACGGUAG | -2.5 ± 0.15 | -1.21 ± 0.12
57 | GUACAGCAAUAUUACGCUAU | -3.82 ± 0.29 | -1.77 ± 0.2
58 | UCGGAGCAAUAUUACGGCCC | – | -2.31 ± 0.45
59 | GCCCAGCAAUAUUACGCAUC | -0.67 ± 0.075 | -0.106 ± 0.092
60 | GUUGAGCAAUAUUACGUGCG | -3.02 ± 0.21 | -2.07 ± 0.25
61 | CAAAAGCAAUAUUACGGUAA | -1.91 ± 0.12 | -1.45 ± 0.15
62 | AGCUAGCAAUAUUACGUUUU | -2.36 ± 0.14 | -2.18 ± 0.16
63 | GAAUAGCAAUAUUACGUCUA | -1.12 ± 0.12 | -0.42 ± 0.13
64 | AUGCAGCAAUAUUACGUCCC | -1.53 ± 0.42 | –
65 | AAACAGCAAUAUUACGGCUG | -3.47 ± 0.25 | -2.07 ± 0.23
66 | AGACAGCAAUAUUACGUCCU | -0.567 ± 0.052 | -0.257 ± 0.066
67 | GAAGAGCAAUAUUACGUACC | -1.6 ± 0.2 | -1.49 ± 0.19
68 | UCCCAGCAAUAUUACGGUAG | -2.7 ± 0.12 | -1.45 ± 0.11
69 | GGCAAGCAAUAUUACGCGGG | -3.73 ± 0.21 | -3.23 ± 0.26
70 | ACCUAGCAAUAUUACGGGCG | -0.0397 ± 0.068 | -0.0691 ± 0.084
71 | AUACAGCAAUAUUACGCUCC | -1.47 ± 0.16 | -0.769 ± 0.21
72 | GUGUAGCAAUAUUACGUACU | -1.52 ± 0.095 | -1.19 ± 0.14
73 | UAGUAGCAAUAUUACGCUAU | -1.34 ± 0.21 | -1.16 ± 0.25
74 | CUGUAGCAAUAUUACGCUGG | – | -0.992 ± 0.34
75 | UUCGAGCAAUAUUACGAAGU | – | -1.57 ± 0.32

Row | Sequence | self-splicing fitness (ln) (30 °C) | self-splicing fitness (ln) (37 °C)
76 | AGACAGCAAUAUUACGGGUA | -2.49 ± 0.1 | -2.1 ± 0.095
77 | UAUAAGCAAUAUUACGCAAU | -2.11 ± 0.13 | -2.1 ± 0.15
78 | GUUGAGCAAUAUUACGUGGG | -3.09 ± 0.23 | -1.97 ± 0.18
79 | GCAGAGCAAUAUUACGGCUU | -1.92 ± 0.27 | -0.671 ± 0.21
80 | AAUAAGCAAUAUUACGUGGU | -3.77 ± 0.17 | -2.63 ± 0.14
81 | AGCAAGCAAUAUUACGCCAG | -2.09 ± 0.2 | -2.65 ± 0.44
82 | GGCCAGCAAUAUUACGAAGG | – | -2.62 ± 0.33
83 | CCUCAGCAAUAUUACGUACG | -1.32 ± 0.069 | -0.131 ± 0.084
84 | CCCGAGCAAUAUUACGUGCC | -4.31 ± 0.3 | -3.26 ± 0.37
85 | UAAUAGCAAUAUUACGCAUG | -1.4 ± 0.085 | 0.553 ± 0.13
86 | UGGAAGCAAUAUUACGCGCG | 0.222 ± 0.15 | 0.698 ± 0.15
87 | GGAAAGCAAUAUUACGAAGG | -3.22 ± 0.23 | -2.5 ± 0.38
88 | UGAUAGCAAUAUUACGGAGG | -2.79 ± 0.26 | -1.56 ± 0.36
89 | CGUAAGCAAUAUUACGGAAG | -2.64 ± 0.19 | -1.41 ± 0.17
90 | UCCGAGCAAUAUUACGCGGG | -3.02 ± 0.28 | -2.78 ± 0.38
91 | AAAUAGCAAUAUUACGCCGA | -2.41 ± 0.19 | -0.837 ± 0.17
92 | CAAUAGCAAUAUUACGAUAG | -0.926 ± 0.069 | -0.00227 ± 0.1
93 | GUUAAGCAAUAUUACGAGCG | -1.54 ± 0.11 | -0.685 ± 0.13
94 | AUCCAGCAAUAUUACGCGGC | -2.86 ± 0.18 | -4.06 ± 0.24
95 | AGAGAGCAAUAUUACGUAUA | – | -1.02 ± 0.32
96 | AGUCAGCAAUAUUACGUACA | -0.657 ± 0.074 | 0.284 ± 0.11
97 | AAAGAGCAAUAUUACGCUCG | -2.17 ± 0.12 | -0.963 ± 0.12
98 | AUGGAGCAAUAUUACGAUUG | -2.3 ± 0.25 | -3.12 ± 0.33

Reference: the supplement of paper PMC7877785
